In patent publication US11161912B2, “Heparanase-neutralizing monoclonal antibodies” (Technion Research & Development Foundation Limited, priority 2015, dated 2021):

Legend:
heparanase = molecular target: T1, heparanase (Homo sapiens, UniProt Q9Y251); assay: Intracellular heparanase content of heparanase-transfected 293 cells (immunofluorescence, immunoblot); format: cell-based; conditions: cells over-expressing heparanase grown with mAb for two days
T1 sequence (Q9Y251 36-543): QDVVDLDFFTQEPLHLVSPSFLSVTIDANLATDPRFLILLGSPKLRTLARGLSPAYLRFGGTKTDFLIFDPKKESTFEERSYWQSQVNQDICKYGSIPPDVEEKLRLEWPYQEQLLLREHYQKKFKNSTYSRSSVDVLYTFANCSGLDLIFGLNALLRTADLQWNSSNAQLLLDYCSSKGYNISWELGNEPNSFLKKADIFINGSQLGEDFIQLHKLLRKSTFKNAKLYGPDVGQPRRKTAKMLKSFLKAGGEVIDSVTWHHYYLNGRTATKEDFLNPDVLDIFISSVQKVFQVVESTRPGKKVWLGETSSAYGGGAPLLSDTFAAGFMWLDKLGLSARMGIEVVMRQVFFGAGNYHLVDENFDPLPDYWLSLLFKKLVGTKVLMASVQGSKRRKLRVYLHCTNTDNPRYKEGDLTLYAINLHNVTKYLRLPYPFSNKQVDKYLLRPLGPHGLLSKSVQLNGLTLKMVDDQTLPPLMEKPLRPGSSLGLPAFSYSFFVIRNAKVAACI
Procedure: FIG. 3A. HEK 293 cells were incubated with latent 65 kDa (upper panel) or GS3 constitutively active heparanase (1 μg/ml; third panel) and the indicated mAbs (10 μg/ml). The cell medium was aspirated at the time designated and cell lysates were subjected to immunoblotting applying anti-heparanase antibody (upper and third panels). […] Heparanase-transfected 293 cells were grown with control mouse IgM or mAb 9E8 for two days. Cells were then fixed with methanol and subjected to immunofluorescent staining applying anti heparanase antibody (second panel) or lysed and subjected to immunoblotting applying anti-heparanase antibody (fourth panel). Purified recombinant active heparanase (200 ng) was pre-incubated with control mouse IgM ( ? ), mAb 8A5 ( ? ), mAb 9E8 ( ? ), all at 2 μg/ml, for 2 h in serum-free RPMI medium on ice. The mixture was then applied onto ^35S-labeled ECM-coated dishes and heparanase activity was determined as described above (lower panel). FIG. 3B, C. ESb mouse T-lymphoma cells (5×10^5) were inoculated subcutaneously in NOD/SCID mice (n=5) and treated with PG545 (20 mg/kg, once a week) (B) or the indicated mAb (500 μg/mouse every other day) (C). FIG. 3C. […] Quantification of the extent of CD45 staining is shown graphically in the lower panel. […]

Cal-27 tongue carcinoma = assay: Matrigel cell invasion, Cal-27 tongue carcinoma cells; format: cell-based, human; conditions: Cal-27 cells, mAb 2 μg, 6 h
Procedure: Cell invasion. Matrigel invasion assay was performed using modified Boyden chambers with polycarbonate Nucleopore membrane (Corning, Corning, N.Y.), essentially as described (17). Briefly, filters (6.5 mm in diameter, 8 μm pore-size) were coated with Matrigel (30 μl); Cells (2×10^5) in 100 μl of serum-free medium were seeded in triplicate on the upper part of each chamber, and the lower compartment was filled with 600 μl medium supplemented with 10% FCS. After incubation for 5 h at 37° C. in a 5% CO2 incubator, non-invading cells on the upper surface of the filter were wiped with a cotton swab, and migrated cells on the lower surface of the filter were fixed, stained with 0.5% crystal violet (Sigma) and counted by examination of at least seven microscopic fields.
FIG. 5A. Cell invasion. Cal-27 tongue carcinoma (left panels) and U87 glioma cells (right panels) (2×10^5) were plated onto Matrigel-coated filters in the presence of mouse IgM/IgG (upper panels), mAb 9E8 (2 μg; second left and middle panels). Invading cells adhering to the lower side of the membrane were visualized after 6 h. […] Lungs were harvested after 18 days, photographed (lower panel) and the number of metastatic lesions was counted (upper panel; p=0.001, 0.0006, 0.0001 for Con vs. Ab 1453, Con vs. mAb 9E8 and Con vs. SST0001, respectively). […]

B1: mAb 9E8: monoclonal IgM raised against KKDC peptide (Lys158-Asn171) of heparanase; VH SEQ ID NO: 7, VL SEQ ID NO: 8 (antibody)
VH: EVKLLESGGGLVQPGGSLKLSCAASGFDFSRYWMSWVRQAPGKGLEWIGEINPDSSTINYTPSLKDKFIISRDNAKNTLYLQMSKVRSEDTALYYCARRGYEGNYAMDYWGQGTSVTVSSESQSFPNVFPLVSCESPLSDKNLVAMGCLAR
VL: DIVMTQAAPSVPVTPGESVSISCRSSKSLLHSNGNTYLYWFLQRPGQSPQLLIYRMSNLASGVPDRFSGSGSGTAFTLRISRVEAEDVGVYYCMQHLEYPFTFGSGTKLEIKRADAAPTVSIFPPSSEQLTSGGASVVCFL
modifications: IgM constant regions
heparanase
  intracellular content of heparanase: marked decrease
Cal-27 tongue carcinoma
  cell invasion: inhibitory effect
